Test results reported in article PMC4954732 (2016).

Biological target: A. fumigatus CCAAT binding complex (CBC) consisting of HapB(230-299), HapC(40-137) and HapE(47-164) (A. fumigatus)
Assay: SPR

B1: HapX(24-158) (domain or fragment)
chain: SPSPGPGTPGSITSKEWVIPPRPKPGRKPATDTPPTKRKAQNRAAQRAFRERRAARVNELEEQIKKIEDEHEIHIAAFKEQITNLSREVEQCRSEMTWWRDRCHALEKEVSVERSAKEAIVKEFRSSLSDREAVR
  Kd: 16.2 nM
